Reference: CN111234012A (UNIV TSINGHUA, dated 2020)

What was measured:
[1] = molecular target: HBV病毒 (HepAD38细胞上清制备的HBV病毒液); assay: cell-based or functional assay
[2] = molecular target: T1, HBs抗原 (GENBANK ACCESSION NO: P30019.1) (乙肝病毒 (hepatitis B virus), UniProt P30019 1-226); assay: ELISA, HBs antigen coated at 50 ng per well, anti-human IgG-HRP, OD450
T1 construct: Coating antigen of the ELISA (50 ng per well); also called 乙肝病毒小膜蛋白HBs; 乙肝表面抗原
T1 sequence (P30019 whole entry, one chain of several): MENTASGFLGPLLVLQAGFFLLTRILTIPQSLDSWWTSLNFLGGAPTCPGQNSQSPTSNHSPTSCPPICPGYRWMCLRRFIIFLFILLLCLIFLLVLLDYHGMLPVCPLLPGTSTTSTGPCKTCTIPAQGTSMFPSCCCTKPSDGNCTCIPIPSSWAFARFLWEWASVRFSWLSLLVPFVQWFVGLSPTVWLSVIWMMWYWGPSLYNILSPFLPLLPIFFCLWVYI

B1: 单克隆抗体B432 (antibody, V domains shown)
VH: VQLVQSGGGVVQPGGSLRLSCAASGFIFGDYAMYWVRQAPGKGLEWVSFIGADGATIYYADSVTGRFTISRDNSKNSLFLQMNSLRTEDTAFYYCAKEMGVRDRYYYYAIDVWGQGTTVTVSS
VL: EIVLTQSPGTLSLSPGERASLSCRASQSVGGYLAWYQQTPGQAPRLLIYHSSTRATGIPARFSGSGSGTDFTLTISRLEPEDFAVYYCQQRTKWPLTFGGGTKVEIKR
notes: also called B432抗体
With B1 the “HBV neutralisation on HepG2-NTCP cells, HBeAg in supernatant (IC50)” value [1] was 0.025 µg/mL and the binding result [2] was “binds”.
